Experimental data reported in patent US20200237800.

Key:
Experiment in all cases: pulldown
Details in all cases: sense/antisense normalized AUC more than 2-fold
[1] = molecular target: FLG2 (Filaggrin-2) (Homo sapiens) (UniProt Q5D862)
[2] = molecular target: ACLY (ATP-citrate synthase) (Homo sapiens) (UniProt P53396)
[3] = molecular target: T1, SFPQ (splicing factor, proline- and glutamine-rich) (Homo sapiens) (UniProt P23246)
T1 sequence: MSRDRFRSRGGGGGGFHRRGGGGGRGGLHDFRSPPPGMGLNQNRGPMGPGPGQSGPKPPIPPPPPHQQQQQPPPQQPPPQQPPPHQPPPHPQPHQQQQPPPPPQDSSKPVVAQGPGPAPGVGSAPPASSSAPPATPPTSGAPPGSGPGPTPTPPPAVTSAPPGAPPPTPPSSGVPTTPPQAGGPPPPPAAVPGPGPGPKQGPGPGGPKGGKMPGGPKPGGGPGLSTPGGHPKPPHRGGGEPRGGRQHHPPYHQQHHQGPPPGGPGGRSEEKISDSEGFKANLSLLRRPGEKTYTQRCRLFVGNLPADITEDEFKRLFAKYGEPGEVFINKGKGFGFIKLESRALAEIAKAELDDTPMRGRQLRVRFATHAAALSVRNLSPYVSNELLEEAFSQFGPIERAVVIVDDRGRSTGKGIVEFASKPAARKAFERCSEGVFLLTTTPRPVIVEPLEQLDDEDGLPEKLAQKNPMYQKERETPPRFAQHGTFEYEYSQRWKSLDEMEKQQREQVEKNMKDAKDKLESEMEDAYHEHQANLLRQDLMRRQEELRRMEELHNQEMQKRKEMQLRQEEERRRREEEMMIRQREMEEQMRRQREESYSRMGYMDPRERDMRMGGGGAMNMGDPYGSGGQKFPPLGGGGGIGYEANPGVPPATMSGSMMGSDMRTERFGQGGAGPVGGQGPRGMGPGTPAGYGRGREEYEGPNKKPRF

Measured: binding signal (fraction of sense)

Chain of ACLY (ATP-citrate synthase) (Homo sapiens) (P53396 whole entry): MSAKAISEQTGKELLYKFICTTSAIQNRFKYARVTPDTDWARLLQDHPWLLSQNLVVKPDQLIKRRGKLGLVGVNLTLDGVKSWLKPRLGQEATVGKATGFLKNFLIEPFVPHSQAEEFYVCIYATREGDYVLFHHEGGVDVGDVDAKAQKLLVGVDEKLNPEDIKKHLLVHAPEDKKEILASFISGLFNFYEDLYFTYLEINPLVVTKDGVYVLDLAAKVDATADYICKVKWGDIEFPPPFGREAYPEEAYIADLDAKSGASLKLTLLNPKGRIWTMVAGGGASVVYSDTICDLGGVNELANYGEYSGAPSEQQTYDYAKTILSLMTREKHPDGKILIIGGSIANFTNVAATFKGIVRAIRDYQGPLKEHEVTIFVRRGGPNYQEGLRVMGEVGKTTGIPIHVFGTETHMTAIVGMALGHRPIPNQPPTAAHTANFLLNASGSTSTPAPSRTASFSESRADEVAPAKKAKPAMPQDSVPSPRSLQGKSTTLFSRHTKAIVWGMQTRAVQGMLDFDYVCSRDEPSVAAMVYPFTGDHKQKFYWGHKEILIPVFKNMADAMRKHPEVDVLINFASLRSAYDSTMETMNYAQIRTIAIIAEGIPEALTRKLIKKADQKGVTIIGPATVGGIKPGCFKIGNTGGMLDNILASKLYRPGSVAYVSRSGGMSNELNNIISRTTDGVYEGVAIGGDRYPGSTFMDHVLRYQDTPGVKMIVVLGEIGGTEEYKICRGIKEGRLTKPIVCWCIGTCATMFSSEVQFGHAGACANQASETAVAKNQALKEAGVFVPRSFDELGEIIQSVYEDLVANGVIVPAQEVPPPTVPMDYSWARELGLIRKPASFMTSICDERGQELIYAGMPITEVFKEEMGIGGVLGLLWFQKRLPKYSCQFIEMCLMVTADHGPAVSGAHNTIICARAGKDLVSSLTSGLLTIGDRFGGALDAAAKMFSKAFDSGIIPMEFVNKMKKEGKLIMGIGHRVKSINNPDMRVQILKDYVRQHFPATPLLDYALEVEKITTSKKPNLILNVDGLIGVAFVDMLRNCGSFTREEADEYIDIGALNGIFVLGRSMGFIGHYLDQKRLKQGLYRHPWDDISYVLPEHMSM
Chain of FLG2 (Filaggrin-2) (Homo sapiens) (Q5D862 whole entry): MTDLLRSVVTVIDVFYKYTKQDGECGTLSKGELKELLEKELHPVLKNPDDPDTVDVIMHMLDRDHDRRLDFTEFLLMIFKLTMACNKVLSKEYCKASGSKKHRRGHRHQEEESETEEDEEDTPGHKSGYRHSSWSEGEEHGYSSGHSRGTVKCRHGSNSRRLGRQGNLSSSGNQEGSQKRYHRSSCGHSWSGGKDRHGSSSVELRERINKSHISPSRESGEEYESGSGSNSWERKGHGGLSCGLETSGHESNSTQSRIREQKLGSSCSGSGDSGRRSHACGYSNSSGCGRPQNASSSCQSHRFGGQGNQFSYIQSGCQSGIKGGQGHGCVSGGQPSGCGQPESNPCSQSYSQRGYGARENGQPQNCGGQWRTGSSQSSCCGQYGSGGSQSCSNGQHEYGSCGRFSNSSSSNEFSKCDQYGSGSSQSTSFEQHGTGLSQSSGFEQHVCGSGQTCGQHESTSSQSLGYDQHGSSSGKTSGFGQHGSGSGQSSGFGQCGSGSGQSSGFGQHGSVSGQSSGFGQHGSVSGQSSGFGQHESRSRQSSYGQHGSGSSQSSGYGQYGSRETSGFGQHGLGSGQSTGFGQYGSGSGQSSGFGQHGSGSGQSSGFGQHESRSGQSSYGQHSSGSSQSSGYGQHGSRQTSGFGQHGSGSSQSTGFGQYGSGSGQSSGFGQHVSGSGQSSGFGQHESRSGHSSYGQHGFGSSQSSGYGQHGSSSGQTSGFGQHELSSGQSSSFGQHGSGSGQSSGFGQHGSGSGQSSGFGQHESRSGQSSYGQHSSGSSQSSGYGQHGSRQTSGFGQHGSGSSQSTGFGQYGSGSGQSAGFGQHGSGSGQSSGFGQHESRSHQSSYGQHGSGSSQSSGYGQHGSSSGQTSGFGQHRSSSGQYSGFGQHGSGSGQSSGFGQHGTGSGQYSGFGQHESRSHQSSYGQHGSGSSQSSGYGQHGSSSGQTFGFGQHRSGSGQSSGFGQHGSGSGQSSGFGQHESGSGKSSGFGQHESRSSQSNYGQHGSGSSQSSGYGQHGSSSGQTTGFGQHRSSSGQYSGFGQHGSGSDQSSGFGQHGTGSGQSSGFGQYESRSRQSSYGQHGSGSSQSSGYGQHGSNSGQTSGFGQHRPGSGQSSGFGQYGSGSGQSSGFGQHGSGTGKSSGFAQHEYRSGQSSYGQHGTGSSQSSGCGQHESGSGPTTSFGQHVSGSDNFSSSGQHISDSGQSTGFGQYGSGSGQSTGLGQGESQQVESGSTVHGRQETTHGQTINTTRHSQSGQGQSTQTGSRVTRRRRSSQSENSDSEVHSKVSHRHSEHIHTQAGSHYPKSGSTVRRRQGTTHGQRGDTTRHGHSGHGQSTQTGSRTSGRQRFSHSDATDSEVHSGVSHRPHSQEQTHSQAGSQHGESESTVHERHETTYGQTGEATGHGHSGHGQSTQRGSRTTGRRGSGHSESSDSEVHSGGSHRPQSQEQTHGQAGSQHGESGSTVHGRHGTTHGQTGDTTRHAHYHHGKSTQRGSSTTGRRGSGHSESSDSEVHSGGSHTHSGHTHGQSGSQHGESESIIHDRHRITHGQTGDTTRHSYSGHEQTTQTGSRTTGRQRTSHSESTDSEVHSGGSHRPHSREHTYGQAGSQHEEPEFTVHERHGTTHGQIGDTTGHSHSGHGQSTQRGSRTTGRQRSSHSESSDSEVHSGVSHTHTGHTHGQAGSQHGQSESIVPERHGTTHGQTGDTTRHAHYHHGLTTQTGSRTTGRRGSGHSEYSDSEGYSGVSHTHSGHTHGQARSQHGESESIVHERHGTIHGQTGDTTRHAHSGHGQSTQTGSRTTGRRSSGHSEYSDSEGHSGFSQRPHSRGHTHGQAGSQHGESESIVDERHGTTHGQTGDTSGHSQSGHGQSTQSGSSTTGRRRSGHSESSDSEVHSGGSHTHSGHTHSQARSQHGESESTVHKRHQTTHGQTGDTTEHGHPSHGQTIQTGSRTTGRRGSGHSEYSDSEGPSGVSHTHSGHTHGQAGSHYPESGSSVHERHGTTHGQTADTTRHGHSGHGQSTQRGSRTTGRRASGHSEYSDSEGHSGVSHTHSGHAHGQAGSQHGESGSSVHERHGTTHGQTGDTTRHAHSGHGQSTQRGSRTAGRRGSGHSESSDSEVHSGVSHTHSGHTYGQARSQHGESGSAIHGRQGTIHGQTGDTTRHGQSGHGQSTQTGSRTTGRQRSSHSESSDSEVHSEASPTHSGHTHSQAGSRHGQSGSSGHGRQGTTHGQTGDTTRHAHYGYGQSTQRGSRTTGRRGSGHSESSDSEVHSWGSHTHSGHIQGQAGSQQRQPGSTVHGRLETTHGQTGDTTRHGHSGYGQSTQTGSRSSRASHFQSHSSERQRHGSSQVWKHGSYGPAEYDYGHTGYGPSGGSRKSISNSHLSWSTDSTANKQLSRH

lnc-FAM164A1 antisense RNA
< 0.5: [1] | [2] | [3]
